From article PMC4476739 (PLoS ONE, 2015)

Key:
Test in all cases: BLI; fortéBio Octet Red384; RSV F variant captured on motavizumab IgG loaded on anti-human Fc probes; Fab in solution 0.007 to 0.5 μM; 30°C; PBS + 1% BSA; 1:1 fit
Settings in all cases: both partners purified
[1] = biological target: T1, DS-Cav1 2-AB, foldon removed (Human respiratory syncytial virus A, …, S155C | S290C | S190F | V207L | L512C (stands in the printed letters) | L513C …)
T1 construct: RSV F glycoprotein, F1 subunit from its N-terminus to residue 511, with the DS (S155C-S290C) and Cav1 (S190F, V207L) mutations; RSV F α10 helix from residue 512 with rings A and B; Gly-Gly linker and LVPR of the thrombin site, left after cleavage; trimeric species purified after foldon removal; also called Rings AB; rings AB without foldon; source: Expi293F, transient transfection, purified from …

[2] = biological target: T2, DS-Cav1 3-BCD, foldon removed (Human respiratory syncytial virus A, …, S155C | S290C | S190F | V207L | G519C (stands in the printed letters) | K520C …)
T2 construct: RSV F glycoprotein, F1 subunit from its N-terminus to residue 511, with the DS (S155C-S290C) and Cav1 (S190F, V207L) mutations; RSV F α10 helix from residue 512 with rings B and C; added stretch that duplicates part of the coiled-coil; ring D at 533C-534C; Gly-Gly linker and LVPR of the thrombin site, left after cleavage; trimeric species purified after foldon removal; also called rings BCD …

[3] = biological target: T3, DS-Cav1 4-ABCD, foldon removed (Human respiratory syncytial virus A, …, S155C | S290C | S190F | V207L | L512C (stands in the printed letters) | L513C …)
T3 construct: RSV F glycoprotein, F1 subunit from its N-terminus to residue 511, with the DS (S155C-S290C) and Cav1 (S190F, V207L) mutations; RSV F α10 helix from residue 512 with rings A, B and C; added stretch that duplicates part of the coiled-coil; ring D at 533C-534C; Gly-Gly linker and LVPR of the thrombin site, left after cleavage; trimeric species purified after foldon removal; also called Rings ABCD; …

[4] = biological target: T4, DS-Cav1 4-BCDE, foldon removed (Human respiratory syncytial virus A, …, S155C | S290C | S190F | V207L | G519C (stands in the printed letters) | K520C …)
T4 construct: RSV F glycoprotein, F1 subunit from its N-terminus to residue 511, with the DS (S155C-S290C) and Cav1 (S190F, V207L) mutations; RSV F α10 helix from residue 512 with rings B and C; added stretch based on the α10 heptad repeat; ring D at 533C-534C and ring E at 540C-541C; Gly-Gly linker and LVPR of the thrombin site, left after cleavage; trimeric species purified after foldon removal; also called …

[5] = biological target: T5, DS-Cav1 5-ABCDE, foldon removed (Human respiratory syncytial virus A, …, S155C | S290C | S190F | V207L | L512C (stands in the printed letters) | L513C …)
T5 construct: RSV F glycoprotein, F1 subunit from its N-terminus to residue 511, with the DS (S155C-S290C) and Cav1 (S190F, V207L) mutations; RSV F α10 helix from residue 512 with rings A, B and C; added stretch based on the α10 heptad repeat; ring D at 533C-534C and ring E at 540C-541C; Gly-Gly linker and LVPR of the thrombin site, left after cleavage; trimeric species purified after foldon removal; also …

B1: D25 antigen binding fragment (Fab) (Fab, V domains shown)
VH: QVQLVQSGAEVKKPGSSVMVSCQASGGPLRNYIINWLRQAPGQGPEWMGGIIPVLGTVHYAPKFQGRVTITADESTDTAYIHLISLRSEDTAMYYCATETALVVSTTYLPHYFDNWGQGTLVTVSS
VL: DIQMTQSPSSLSAAVGDRVTITCQASQDIVNYLNWYQQKPGKAPKLLIYVASNLETGVPSRFSGSGSGTDFSLTISSLQPEDVATYYCQQYDNLPLTFGGGTKVEIK
notes: Fab in solution in the Octet assays; also called site Ø-specific antibody D25
With B1 the Kd [1] was 0.21 nM, the Kd [2] was 0.38 nM and the Kd [3] was 0.32 nM. For the same binder, the Kd [4] was 0.33 nM and the Kd [5] was 0.47 nM.
